Measured values reported in patent US20150301046A1 (published 2015).

B1: 13B8.2 Fab fragment (Fab, V domains shown)
VH: QVQLKQSGPGLVQPSQSLSITCTVSGFSLTTFGVHWVRQSPGKGLEWLGVIWRSGITDYNVPFMSRLSITKDNSKSQVFFKLNSLQPDDTAIYYCAKNDPGTGFAYWGQGTLVTVSA
VL: DIQMTQSPASLSASVGETVTFTCRASEMIYSYLAWYQQKQGKSPQLLVHDAKTLAEGVPSRFSGGGSGTQFSLKINTLQPEDFGTYYCQHHYGNPPTFGGGTKLEIKR
notes: Chimeric Fab expressed in the periplasm of E. coli; In the staining it was used as a monomer or multimerized on Strep-Tactin PE; also called CD4 wt (13B8.2); 13B8.2 wildtype (wt) Fab fragment
B2: mutant 13B8.2 Fab fragment, CD4 mutant 1 (F100A) (Fab, V domains shown)
VH: QVQLKQSGPGLVQPSQSLSITCTVSGFSLTTFGVHWVRQSPGKGLEWLGVIWRSGITDYNVPFMSRLSITKDNSKSQVFFKLNSLQPDDTAIYYCAKNDPGTGAAYWGQGTLVTVSA
VL: DIQMTQSPASLSASVGETVTFTCRASEMIYSYLAWYQQKQGKSPQLLVHDAKTLAEGVPSRFSGGGSGTQFSLKINTLQPEDFGTYYCQHHYGNPPTFGGGTKLEIKR
notes: also called Fab mutant 1; F100K-H
B3: mutant 13B8.2 Fab fragment, CD4 mutant 3 (H35A) (Fab, V domains shown)
VH: QVQLKQSGPGLVQPSQSLSITCTVSGFSLTTFGVAWVRQSPGKGLEWLGVIWRSGITDYNVPFMSRLSITKDNSKSQVFFKLNSLQPDDTAIYYCAKNDPGTGFAYWGQGTLVTVSA
VL: DIQMTQSPASLSASVGETVTFTCRASEMIYSYLAWYQQKQGKSPQLLVHDAKTLAEGVPSRFSGGGSGTQFSLKINTLQPEDFGTYYCQHHYGNPPTFGGGTKLEIKR
notes: also called Fab mutant 3; H35-H
B4: mutant 13B8.2 Fab fragment, CD4 mutant 2 (Y92A) (Fab, V domains shown)
VH: QVQLKQSGPGLVQPSQSLSITCTVSGFSLTTFGVHWVRQSPGKGLEWLGVIWRSGITDYNVPFMSRLSITKDNSKSQVFFKLNSLQPDDTAIYYCAKNDPGTGFAYWGQGTLVTVSA
VL: DIQMTQSPASLSASVGETVTFTCRASEMIYSYLAWYQQKQGKSPQLLVHDAKTLAEGVPSRFSGGGSGTQFSLKINTLQPEDFGTYYCQHHAGNPPTFGGGTKLEIKR
notes: also called Fab mutant 2; Y92-L

Tests used:
[1] = biological target: T1, CD4 (cell surface receptor molecule on PBMCs) (human, UniProt P01730 26-458); test: flow cytometry on PBMCs, Fab multimerized on Strep-Tactin PE
T1 construct: whole, on cells; also called CD4 receptor molecule
Method: For staining of a CD4 receptor molecule specific target cell population in a mixture of cells, Strep-Tactin® labeled with phycoerythrine as a fluorescent label (IBA GmbH, Göttingen, Germany) was used as multimerization reagent together with the monomeric CD4 binding Fab-One-STrEP fragment of the variants of the antibody 13B8.2 (that served as receptor binding reagent) as described below. For FACS analysis 5×10⁶ PBMCs were incubated with Fab multimers consisting of 0.2 μg Fab-fragment (comprising binding site B) equipped with the One-STrEP-tag (binding partner C) as receptor binding reagent and 0.75 μg Strep-Tactin® PE (IBA GmbH, Göttingen, Germany) as multimerization reagent using the protocol below. In addition, after FACS separation, the multivalent complexes were disrupted in a portion of each of the stained cells by addition of biotin as described below. […]
For staining and dissociation experiments, 5×10⁶ PBMCs were incubated with the respective anti-CD4 Fab-multimer-Strep-Tactin® PE complexes or with the corresponding Fab-monomers (the latter not complexed with Strep-Tactin® PE). […] As expected from the monomer staining experiments, no remaining Fab monomers could be detected for mutants 2, 3 and 4, whereas substantial residual cell surface bound Fab of the wild-type and mutant 1 variants was observed.

[2] = biological target: T1, CD4 (cell surface receptor molecule on …); test: flow cytometry on PBMCs, Fab multimerized on Strep-Tactin PE (before the Western blot experiment)
Method: CD4 Fab-multimers were generated with the different anti-CD4 Fab-mutants listed in Table 1 and further specified in FIG. 2 and Strep-Tactin® PE (IBA GmbH, Göttingen, Germany). PBMCs were incubated with the different CD4 Fab-multimers and consistent cell staining in each sample was verified by flow cytometry (solid line compared to the tinted histogram representing unstained cells). Then, cells were treated with D-biotin and subsequently washed. Finally, washed cells were lysed, and the soluble (S) and insoluble (I) fractions were analyzed for remaining Fab-monomers using highly specific anti-Strep-Tag® antibodies (StrepMAB-Classic Horse Radish Peroxidase (HRP) conjugate; IBA GmbH, Göttingen, Germany). To control application of consistent amounts of insoluble cell material, β-actin was detected simultaneously with a primary antibody against β-actin from rabbit (Santa Cruz Biotechnology Inc., Santa Cruz, USA) and a secondary antibody against rabbit Ig (immunoglobulin) conjugated to HRP (Sigma, St. Louis, USA). […]

Binder | binding result [1] | binding result [2]
B1 | binds | –
B2 | binds | –
B3 | – | binds
B4 | – | binds
